Reference: article PMC8523606, “Two fungal flavonoid-specific glucosidases/rutinosidases for rutin hydrolysis and rutinoside synthesis under homogeneous and heterogeneous reaction conditions” (AMB Express, 2021)

Key:
Details in all cases: 50 mM citrate buffer, 10% (v/v) DMSO
[1] = tested on: COc1cc(-c2oc3cc(O)cc(O)c3c(=O)c2O[C@@H]2O[C@H](CO[C@@H]3O[C@@H](C)[C@H](O)[C@@H](O)[C@H]3O)[C@@H](O)[C@H](O)[C@H]2O)ccc1O; experiment: purified protein
[2] = tested on: O=c1c(O[C@@H]2O[C@H](CO)[C@@H](O)[C@H](O)[C@H]2O)c(-c2ccc(O)c(O)c2)oc2cc(O)cc(O)c12; experiment: purified protein
[3] = tested on: COc1ccc([C@@H]2CC(=O)c3c(O)cc(O[C@@H]4O[C@H](CO[C@@H]5O[C@@H](C)[C@H](O)[C@@H](O)[C@H]5O)[C@@H](O)[C@H](O)[C@H]4O)cc3O2)cc1O; experiment: purified protein
[4] = tested on: C[C@@H]1O[C@@H](OC[C@H]2O[C@@H](Oc3c(-c4ccc(O)c(O)c4)oc4cc(O)cc(O)c4c3=O)[C@H](O)[C@@H](O)[C@@H]2O)[C@H](O)[C@H](O)[C@H]1O; experiment: purified protein
[5] = substrate: C[C@@H]1O[C@@H](OC[C@H]2O[C@@H](Oc3c(-c4ccc(O)c(O)c4)oc4cc(O)cc(O)c4c3=O)[C@H](O)[C@@H](O)[C@@H]2O)[C@H](O)[C@H](O)[C@H]1O; experiment: hydrolysis, aglycone release by HPLC; format: biochemical, Penicillium rubens
Excerpt: (§1) hydrolysis, aglycone release by HPLC on PcGlc

[6] = substrate: COc1cc(-c2oc3cc(O)cc(O)c3c(=O)c2O[C@@H]2O[C@H](CO[C@@H]3O[C@@H](C)[C@H](O)[C@@H](O)[C@H]3O)[C@@H](O)[C@H](O)[C@H]2O)ccc1O; experiment: hydrolysis, aglycone release by HPLC; format: biochemical, Penicillium rubens
Excerpt: as §1

[7] = substrate: COc1ccc([C@@H]2CC(=O)c3c(O)cc(O[C@@H]4O[C@H](CO[C@@H]5O[C@@H](C)[C@H](O)[C@@H](O)[C@H]5O)[C@@H](O)[C@H](O)[C@H]4O)cc3O2)cc1O; experiment: hydrolysis, aglycone release by HPLC; format: biochemical, Penicillium rubens
Excerpt: as §1

[8] = substrate: O=c1c(O[C@@H]2O[C@H](CO)[C@@H](O)[C@H](O)[C@H]2O)c(-c2ccc(O)c(O)c2)oc2cc(O)cc(O)c12; experiment: hydrolysis, aglycone release by HPLC; format: biochemical, Penicillium rubens
Excerpt: as §1

Work on McGlc (Mucor circinelloides) yielded a Km [1] of 0.21 ± 0.09 mM, a kcat [1] of 69.1 ± 6 s⁻¹ and a kcat/Km [1] of 257000 M⁻¹ s⁻¹. It also gave a Km [2] of 0.04 ± 0.01 mM, a kcat [2] of 53.9 ± 1.9 s⁻¹ and a kcat/Km [2] of 1.35e+06 M⁻¹ s⁻¹. For the same molecule, the Km [3] was 4.8 ± 0.1 mM, the kcat [3] was 23 ± 1.7 s⁻¹ and the kcat/Km [3] was 4800 M⁻¹ s⁻¹. For the same molecule, the Km [4] was 0.12 ± 0.03 mM, the kcat [4] was 22.7 ± 0.5 s⁻¹ and the kcat/Km [4] was 189000 M⁻¹ s⁻¹.

B1: PcGlc (Penicillium rubens Wisconsin 54-1255) (protein)
chain: TPTSFHLSPNNNISHDYINWRTFHGRGVNLGGWLQQESTIDTSWWSTYSGGASDEWNLCAQLGSKCGPVLEHRYKTFITTRDIDTLASSGVTVLRIPTSYAAWVRVPGSQLYSGKQKEHIHRIATYAIEKYDMHIILDIHSLPGGINGLDIGEAVGHWGWYNNDTALKYSLDAVDSALHFIQFSSGHPQSYTLSPINEPVDNRDFSTFGTPAALSEAGASWVLKYLHAVIDRTKKVNPRIPVMCQGSFKPETYWSPHFDAGANIVFDEHHYYFQYSNSTSANLPEFLCQDAKKSAGDGKFPTFVGEWAIEASDNDLGLRGQNLQAGISAFGQFTRGSSYWTAKFSSNATIKGEGVKGNYWNYEEFVRMGYLDGQVEVPNYCQ
notes: secreted from recombinant Pichia pastoris KM71H, purified by cation exchange chromatography, glycosylated
Molecule B1 has a Km [5] of 0.21 ± 0.06 mM, a kcat [5] of 39.3 ± 1.2 s⁻¹ and a kcat/Km [5] of 187000 M⁻¹ s⁻¹. For the same molecule, the Km [6] was 0.29 ± 0.1 mM, the kcat [6] was 120 ± 13 s⁻¹ and the kcat/Km [6] was 414000 M⁻¹ s⁻¹. The Km [7] was 0.38 ± 0.09 mM, the kcat [7] was 9.3 ± 0.8 s⁻¹ and the kcat/Km [7] was 24500 M⁻¹ s⁻¹. For the same molecule, the Km [8] was 0.03 ± 0.006 mM, the kcat [8] was 30.3 ± 1.5 s⁻¹ and the kcat/Km [8] was 1.01e+06 M⁻¹ s⁻¹.
